Measured values: patent US20140044713A1

Experiments:
[1] = biological target: Lgr5 (endogenous, or expression construct whose tag is not stated) (human) (UniProt O75473); test: TAP (anti-FLAG, anti-HA) + mass spectrometry, bait stably expressed in LS174T cells, Exp 2, prey LGR5
[2] = biological target: LRP6 (endogenous) (human) (UniProt O75581); test: TAP (anti-FLAG, anti-HA) + mass spectrometry, bait stably expressed in LS174T cells, Exp 2, prey LRP6
[3] = biological target: Frz5 (endogenous, LS174T cells) (human) (UniProt Q13467); test: TAP (anti-FLAG, anti-HA) + mass spectrometry, bait stably expressed in LS174T cells, Exp 2, prey Frzd5
Chain of Frz5 (endogenous, LS174T cells) (human) (Q13467 27-585): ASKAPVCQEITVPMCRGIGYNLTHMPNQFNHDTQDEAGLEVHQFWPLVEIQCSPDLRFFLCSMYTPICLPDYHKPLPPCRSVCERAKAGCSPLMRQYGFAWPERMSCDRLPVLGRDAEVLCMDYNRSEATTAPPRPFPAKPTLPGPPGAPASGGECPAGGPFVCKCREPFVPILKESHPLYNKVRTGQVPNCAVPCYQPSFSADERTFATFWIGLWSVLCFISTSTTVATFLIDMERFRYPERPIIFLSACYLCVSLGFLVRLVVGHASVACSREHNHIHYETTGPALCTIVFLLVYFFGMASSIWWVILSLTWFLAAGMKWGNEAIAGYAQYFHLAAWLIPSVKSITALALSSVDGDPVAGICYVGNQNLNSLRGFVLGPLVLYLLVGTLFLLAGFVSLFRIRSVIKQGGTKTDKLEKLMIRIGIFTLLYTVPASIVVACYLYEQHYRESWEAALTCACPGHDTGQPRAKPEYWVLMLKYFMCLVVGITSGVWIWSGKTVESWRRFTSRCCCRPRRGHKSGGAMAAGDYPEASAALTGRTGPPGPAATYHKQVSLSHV

[4] = biological target: Frz7 (endogenous, LS174T cells) (human) (UniProt O75084); test: TAP (anti-FLAG, anti-HA) + mass spectrometry, bait stably expressed in LS174T cells, Exp 2, prey Frzd7
[5] = biological target: LRP6 (endogenous) (human) (UniProt O75581); test: TAP (anti-FLAG, anti-HA) + mass spectrometry, bait stably expressed in LS174T cells, Exp 3, prey LRP6
[6] = biological target: LRP5 (endogenous) (human) (UniProt O75197); test: TAP (anti-FLAG, anti-HA) + mass spectrometry, bait stably expressed in LS174T cells, Exp 4, prey LRP5
Chain of LRP5 (endogenous) (human) (O75197 32-1615): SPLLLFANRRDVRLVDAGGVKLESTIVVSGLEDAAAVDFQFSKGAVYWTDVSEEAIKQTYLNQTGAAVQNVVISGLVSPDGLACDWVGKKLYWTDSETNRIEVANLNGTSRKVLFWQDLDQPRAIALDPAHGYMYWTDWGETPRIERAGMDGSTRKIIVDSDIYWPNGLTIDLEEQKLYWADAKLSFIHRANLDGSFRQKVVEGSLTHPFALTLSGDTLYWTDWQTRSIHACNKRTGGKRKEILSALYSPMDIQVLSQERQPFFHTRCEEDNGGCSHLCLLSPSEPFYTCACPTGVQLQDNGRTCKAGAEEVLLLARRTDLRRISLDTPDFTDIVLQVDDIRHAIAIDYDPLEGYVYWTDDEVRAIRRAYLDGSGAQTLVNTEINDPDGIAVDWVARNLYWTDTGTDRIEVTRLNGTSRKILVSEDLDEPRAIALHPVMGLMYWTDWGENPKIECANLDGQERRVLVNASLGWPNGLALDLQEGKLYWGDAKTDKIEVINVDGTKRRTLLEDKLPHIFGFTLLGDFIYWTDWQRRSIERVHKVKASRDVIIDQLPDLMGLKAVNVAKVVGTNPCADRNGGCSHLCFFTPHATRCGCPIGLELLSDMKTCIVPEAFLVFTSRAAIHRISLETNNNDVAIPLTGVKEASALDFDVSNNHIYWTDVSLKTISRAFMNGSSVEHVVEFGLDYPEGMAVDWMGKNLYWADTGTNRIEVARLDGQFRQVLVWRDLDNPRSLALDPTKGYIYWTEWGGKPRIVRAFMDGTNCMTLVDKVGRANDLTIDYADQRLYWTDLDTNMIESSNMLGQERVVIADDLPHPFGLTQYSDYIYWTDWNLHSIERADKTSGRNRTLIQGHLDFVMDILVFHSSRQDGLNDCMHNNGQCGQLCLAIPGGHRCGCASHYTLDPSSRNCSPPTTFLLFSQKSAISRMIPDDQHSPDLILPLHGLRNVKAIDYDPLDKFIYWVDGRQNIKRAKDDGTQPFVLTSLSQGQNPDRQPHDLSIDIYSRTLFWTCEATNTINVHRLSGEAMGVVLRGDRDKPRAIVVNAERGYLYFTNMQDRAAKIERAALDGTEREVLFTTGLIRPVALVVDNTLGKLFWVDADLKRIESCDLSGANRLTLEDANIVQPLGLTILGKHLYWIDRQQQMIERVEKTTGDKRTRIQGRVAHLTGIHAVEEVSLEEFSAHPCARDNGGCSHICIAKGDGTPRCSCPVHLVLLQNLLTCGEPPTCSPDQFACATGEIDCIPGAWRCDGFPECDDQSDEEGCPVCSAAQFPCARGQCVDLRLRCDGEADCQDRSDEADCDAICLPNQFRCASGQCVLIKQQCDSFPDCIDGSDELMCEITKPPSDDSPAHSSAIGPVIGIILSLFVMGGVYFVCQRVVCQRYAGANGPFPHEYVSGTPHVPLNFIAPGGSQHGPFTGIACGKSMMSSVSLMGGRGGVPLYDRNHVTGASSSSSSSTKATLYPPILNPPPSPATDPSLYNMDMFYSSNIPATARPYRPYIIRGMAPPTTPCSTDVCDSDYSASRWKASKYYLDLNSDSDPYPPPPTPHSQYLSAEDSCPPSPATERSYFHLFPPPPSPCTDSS

[7] = biological target: LRP6 (endogenous) (human) (UniProt O75581); test: TAP (anti-FLAG, anti-HA) + mass spectrometry, bait stably expressed in LS174T cells, Exp 4, prey LRP6
[8] = biological target: LRP5 (endogenous) (human) (UniProt O75197); test: TAP (anti-FLAG, anti-HA) + mass spectrometry, bait stably expressed in LS174T cells, Exp 5, prey LRP5
[9] = biological target: LRP6 (endogenous) (human) (UniProt O75581); test: TAP (anti-FLAG, anti-HA) + mass spectrometry, bait stably expressed in LS174T cells, Exp 5, prey LRP6
[10] = biological target: LRP5 (endogenous) (human) (UniProt O75197); test: TAP (anti-FLAG, anti-HA) + mass spectrometry, bait stably expressed in LS174T cells, Exp 6, prey LRP5
[11] = biological target: Frz6 (endogenous, LS174T cells) (human) (UniProt O60353); test: TAP (anti-FLAG, anti-HA) + mass spectrometry, bait stably expressed in LS174T cells, Exp 3, prey Frzd6
[12] = biological target: Frz6 (endogenous, LS174T cells) (human) (UniProt O60353); test: TAP (anti-FLAG, anti-HA) + mass spectrometry, bait stably expressed in LS174T cells, Exp 4, prey Frzd6
[13] = biological target: Frz6 (endogenous, LS174T cells) (human) (UniProt O60353); test: TAP (anti-FLAG, anti-HA) + mass spectrometry, bait stably expressed in LS174T cells, Exp 5, prey Frzd6
[14] = biological target: Frz6 (endogenous, LS174T cells) (human) (UniProt O60353); test: TAP (anti-FLAG, anti-HA) + mass spectrometry, bait stably expressed in LS174T cells, Exp 6, prey Frzd6
[15] = biological target: Lgr4 (endogenous, or expression construct whose tag is not stated) (human) (UniProt Q9BXB1); test: cell-based or functional assay
[16] = biological target: Lgr4 (endogenous, or expression construct whose tag is not stated) (human) (UniProt Q9BXB1); test: TAP (anti-FLAG, anti-HA) + mass spectrometry, bait stably expressed in LS174T cells, Exp 7, prey LGR4
[17] = biological target: Lgr5 (endogenous, or expression construct whose tag is not stated) (human) (UniProt O75473); test: TAP (anti-FLAG, anti-HA) + mass spectrometry, bait stably expressed in LS174T cells, Exp 7, prey LGR5
[18] = biological target: LRP5 (endogenous) (human) (UniProt O75197); test: TAP (anti-FLAG, anti-HA) + mass spectrometry, bait stably expressed in LS174T cells, Exp 7, prey LRP5
[19] = biological target: LRP6 (endogenous) (human) (UniProt O75581); test: TAP (anti-FLAG, anti-HA) + mass spectrometry, bait stably expressed in LS174T cells, Exp 7, prey LRP6

Chain of Lgr5 (endogenous, or expression construct whose tag is not stated) (human) (O75473 22-907): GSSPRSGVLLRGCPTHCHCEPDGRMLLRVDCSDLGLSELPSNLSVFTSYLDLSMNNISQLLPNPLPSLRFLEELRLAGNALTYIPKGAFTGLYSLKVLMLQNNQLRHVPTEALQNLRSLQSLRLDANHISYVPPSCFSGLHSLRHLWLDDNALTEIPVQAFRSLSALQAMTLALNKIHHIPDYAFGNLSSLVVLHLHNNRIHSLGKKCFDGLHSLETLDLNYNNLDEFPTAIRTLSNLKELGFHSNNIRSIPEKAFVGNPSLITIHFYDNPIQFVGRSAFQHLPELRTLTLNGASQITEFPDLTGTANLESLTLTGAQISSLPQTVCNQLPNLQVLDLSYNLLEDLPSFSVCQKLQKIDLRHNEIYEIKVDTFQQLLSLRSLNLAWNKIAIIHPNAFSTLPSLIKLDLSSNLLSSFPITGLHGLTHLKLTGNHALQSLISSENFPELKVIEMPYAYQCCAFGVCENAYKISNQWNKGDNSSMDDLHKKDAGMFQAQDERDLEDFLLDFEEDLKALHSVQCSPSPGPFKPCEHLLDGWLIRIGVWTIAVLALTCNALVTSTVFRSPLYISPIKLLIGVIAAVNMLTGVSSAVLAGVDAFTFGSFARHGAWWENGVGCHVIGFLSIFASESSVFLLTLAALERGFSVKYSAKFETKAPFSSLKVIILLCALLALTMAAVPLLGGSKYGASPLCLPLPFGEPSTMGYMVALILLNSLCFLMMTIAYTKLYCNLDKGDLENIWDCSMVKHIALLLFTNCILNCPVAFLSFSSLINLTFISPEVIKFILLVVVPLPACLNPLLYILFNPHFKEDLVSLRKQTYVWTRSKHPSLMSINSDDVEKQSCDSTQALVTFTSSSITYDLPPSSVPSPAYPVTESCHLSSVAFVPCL
Chain of LRP6 (endogenous) (human) (O75581 20-1613): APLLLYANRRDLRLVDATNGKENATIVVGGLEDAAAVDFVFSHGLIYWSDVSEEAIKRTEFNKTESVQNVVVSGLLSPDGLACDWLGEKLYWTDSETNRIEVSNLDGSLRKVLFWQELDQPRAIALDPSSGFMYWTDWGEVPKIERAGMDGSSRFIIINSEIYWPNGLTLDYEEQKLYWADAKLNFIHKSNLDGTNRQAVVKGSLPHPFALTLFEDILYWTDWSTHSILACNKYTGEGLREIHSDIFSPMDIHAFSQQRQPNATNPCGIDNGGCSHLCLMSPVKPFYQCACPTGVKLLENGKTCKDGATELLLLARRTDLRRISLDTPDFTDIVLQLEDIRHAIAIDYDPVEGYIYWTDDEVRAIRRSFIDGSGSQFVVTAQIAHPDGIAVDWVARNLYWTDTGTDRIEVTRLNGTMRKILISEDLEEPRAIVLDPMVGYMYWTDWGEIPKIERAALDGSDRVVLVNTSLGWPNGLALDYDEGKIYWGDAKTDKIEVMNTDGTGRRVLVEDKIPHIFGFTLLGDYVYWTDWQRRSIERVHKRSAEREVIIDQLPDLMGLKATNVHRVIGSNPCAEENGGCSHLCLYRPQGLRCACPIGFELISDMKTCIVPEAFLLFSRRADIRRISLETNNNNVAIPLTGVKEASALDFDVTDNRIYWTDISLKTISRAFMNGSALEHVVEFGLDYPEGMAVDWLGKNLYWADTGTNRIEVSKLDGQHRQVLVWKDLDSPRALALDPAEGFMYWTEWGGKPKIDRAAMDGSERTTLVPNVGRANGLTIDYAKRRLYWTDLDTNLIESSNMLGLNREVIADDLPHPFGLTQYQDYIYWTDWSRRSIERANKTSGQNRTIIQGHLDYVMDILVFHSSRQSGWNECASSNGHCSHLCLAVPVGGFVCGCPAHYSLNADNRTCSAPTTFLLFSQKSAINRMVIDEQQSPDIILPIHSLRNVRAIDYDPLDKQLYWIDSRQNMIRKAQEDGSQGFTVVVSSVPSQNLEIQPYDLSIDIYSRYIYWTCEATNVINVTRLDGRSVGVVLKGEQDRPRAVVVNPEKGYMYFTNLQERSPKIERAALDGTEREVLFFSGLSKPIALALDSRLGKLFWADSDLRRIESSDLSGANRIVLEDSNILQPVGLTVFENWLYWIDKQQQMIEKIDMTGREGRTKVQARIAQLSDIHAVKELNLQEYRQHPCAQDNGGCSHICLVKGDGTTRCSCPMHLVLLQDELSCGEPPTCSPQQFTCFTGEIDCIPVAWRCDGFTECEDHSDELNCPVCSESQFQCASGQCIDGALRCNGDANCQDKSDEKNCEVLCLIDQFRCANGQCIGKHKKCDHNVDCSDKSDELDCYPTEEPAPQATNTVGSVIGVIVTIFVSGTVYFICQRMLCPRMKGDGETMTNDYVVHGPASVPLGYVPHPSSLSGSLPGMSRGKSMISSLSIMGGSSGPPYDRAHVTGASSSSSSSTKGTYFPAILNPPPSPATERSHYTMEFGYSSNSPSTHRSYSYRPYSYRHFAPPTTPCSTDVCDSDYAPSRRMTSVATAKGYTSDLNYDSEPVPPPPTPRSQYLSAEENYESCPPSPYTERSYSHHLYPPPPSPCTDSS

Substance: FLAG/HA-tagged Lgr4 (from UniProt Q9BXB1 25-951) (receptor)
- # unique peptides [1]: 7
- MASCOT Protein score (MudPit) [1]: 62
- assigned spectra [1]: 10
- # unique peptides [2]: 3
- MASCOT Protein score (MudPit) [2]: 32
- assigned spectra [2]: 3
- # unique peptides [3]: 1
- MASCOT Protein score (MudPit) [3]: 22
- assigned spectra [3]: 1
- # unique peptides [4]: 1
- MASCOT Protein score (MudPit) [4]: 87
- assigned spectra [4]: 4

Substance: FLAG/HA-tagged Lgr5 (from UniProt O75473 22-907) (receptor)
- # unique peptides [5]: 3
- MASCOT Protein score (MudPit) [5]: 71
- assigned spectra [5]: 3
- # unique peptides [6]: 2
- MASCOT Protein score (MudPit) [6]: 91
- assigned spectra [6]: 3
- # unique peptides [7]: 2
- MASCOT Protein score (MudPit) [7]: 43
- assigned spectra [7]: 2
- # unique peptides [8]: 3
- MASCOT Protein score (MudPit) [8]: 122
- assigned spectra [8]: 3
- # unique peptides [9]: 6
- MASCOT Protein score (MudPit) [9]: 91
- assigned spectra [9]: 6
- # unique peptides [10]: 1
- MASCOT Protein score (MudPit) [10]: 41
- assigned spectra [10]: 1
- # unique peptides [11]: 1
- MASCOT Protein score (MudPit) [11]: 53
- assigned spectra [11]: 1
- # unique peptides [12]: 1
- MASCOT Protein score (MudPit) [12]: 94
- assigned spectra [12]: 2
- # unique peptides [13]: 6
- MASCOT Protein score (MudPit) [13]: 193
- assigned spectra [13]: 11
- # unique peptides [14]: 5
- MASCOT Protein score (MudPit) [14]: 140
- assigned spectra [14]: 8

Substance: Rspo-1 (as added in the TOPflash assay of FIG. 5B) (from UniProt Q2MKA7 21-263) (ligand)
- TOPFlash activity, Wnt3A with Rspo-1 against Wnt3A alone, HEK293T cells [15]: 12 fold

Substance: tagged Frizzled5 (Frz5) (from UniProt Q13467 27-585) (receptor)
- # unique peptides [16]: 10
- MASCOT Protein score (MudPit) [16]: 456
- assigned spectra [16]: 30
- # unique peptides [17]: 2
- MASCOT Protein score (MudPit) [17]: 33
- assigned spectra [17]: 2
- # unique peptides [18]: 3
- MASCOT Protein score (MudPit) [18]: 166
- assigned spectra [18]: 5
- # unique peptides [19]: 10
- MASCOT Protein score (MudPit) [19]: 279
- assigned spectra [19]: 14
